Legend:
[1] = target: Deinococcus radiodurans RecA K83R mutant protein (Deinococcus radiodurans) (UniProt P42443)
[2] = target: Deinococcus radiodurans RecA protein (wild type) (Deinococcus radiodurans) (UniProt P42443)

steady-state RecN ATP hydrolysis rate, order of addition RecA K83R+DNA then RecN (reaction 5; 2 μM RecN, 2 μM RecA K83R, 50 μM duplex DNA, buffer N) [1]: 56.3 µM/min | steady-state RecN ATP hydrolysis rate, order of addition RecN+DNA then RecA K83R (reaction 3; 2 μM RecN, 2 μM RecA K83R, 50 μM duplex DNA, buffer N) [1]: 53.4 µM/min | steady-state RecN ATP hydrolysis rate, order of addition RecN+RecA K83R then DNA (reaction 4; 2 μM RecN, 2 μM RecA K83R, 50 μM duplex DNA, buffer N) [1]: 47.5 µM/min | nicked circular duplex product of RecA-mediated DNA three-strand exchange under dilute conditions (0.4 μM RecA, 500 nM RecN, 45 min) [2]: > 3 fold
B1: Deinococcus radiodurans RecN protein (wild type) (natural protein)
chain: MTRKARTPKAAPVPEAVAVVEPPPPDAAPTGPRLSRLEIRNLATITQLELELGGGFCAFTGETGAGKSIIVDALGLLLGGRANHDLIRSGEKELLVTGFWGDGDESEADSASRRLSSAGRGAARLSGEVVSVRELQEWAQGRLTIHWQHSAVSLLSPANQRGLLDRRVTKEAQAYAAAHAAWREAVSRLERLQASQRERARQIDLLAFQVQEISEVSPDPGEEEGLNTELSRLSNLHTIAQAAAGGVELLSDGDLNAAGLIGEAVRALNAGAKYDETVMQLQNELRAALESVQAIAGELRDVAEGSAADPEALDRVEARLSALSKLKNKYGPTLEDVVEFGAQAAEELAGLEEDERDAGSLQADVDALHAELLKVGQALDAAREREAEPLVDSLLAVIRELGMPHARMEFALSALAEPAAYGLSDVLLRFSANPGEELGPLSDVASGGELSRVMLAVSTVLGADTPSVVFDEVDAGIGGAAAIAVAEQLSRLADTRQVLVVTHLAQIAARAHHHYKVEKQVEDGRTVSHVRLLTGDERLEEIARMLSGNTSEAALEHARELLAG

Reference: article PMC5442325
